These results are taken from EP4714976A1 (Sunshine Lake Pharma Co., Ltd., dated 2026).

The target of assay [1] is T1, FGFR2c (acro) (UniProt P21802 22-377). The assay is described as follows: ELISA, antibody 10 µg/mL.
In assay [2] the target is T2, human FGFR2b (Kaixia Biotechnology, catalog number FGR-HM1BB) (human, UniProt P21802-3 22-378).
T2 construct: extracellular domain; bought; also called hFGFR2b; human FGFR2b protein
Briefly: BLI, antibody on AHC2 sensor.

In assay [3] the target is T3, FGFR4 (acro) (UniProt P22455 22-369).
T3 sequence (looked up): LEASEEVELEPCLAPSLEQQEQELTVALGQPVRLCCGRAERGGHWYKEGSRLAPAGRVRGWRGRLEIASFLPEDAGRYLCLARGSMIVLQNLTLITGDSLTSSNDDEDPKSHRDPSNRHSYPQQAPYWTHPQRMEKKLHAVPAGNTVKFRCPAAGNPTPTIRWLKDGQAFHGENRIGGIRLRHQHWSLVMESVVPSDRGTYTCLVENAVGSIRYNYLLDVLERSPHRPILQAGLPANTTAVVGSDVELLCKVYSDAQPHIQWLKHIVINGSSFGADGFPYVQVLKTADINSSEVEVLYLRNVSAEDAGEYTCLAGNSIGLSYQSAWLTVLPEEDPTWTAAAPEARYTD
The assay is described as follows: ELISA.

For assay [4], the target named is T1, FGFR2c (acro). The assay is described as follows: ELISA.
The target in a further assay is T4, FGFR2b on KATO III cells (human, UniProt P21802-3 22-822).
T4 construct: whole, on cells; also called KATO III cells that overexpress FGFR2b
The assay is described as follows: flow cytometry, KATO III cells.

Assay [5] concerns the target T2, human FGFR2b (Kaixia Biotechnology, …). Briefly: ELISA, FGFR2b coated at 1 µg/ml.
Assay [6] has as its target T3, FGFR4 (acro). The assay is described as follows: ELISA, antibody 10 µg/mL.
Assay [7] concerns the target T5, recombinant cynomolgus monkey FGFR2b (cynomolgus monkey).
T5 construct: extracellular domain; bought; also called cynomolgus macaque FGFR2b
The assay is described as follows: ELISA, antibody 1ug/mL.

T4 sequence (P21802 other isoform, or with tags, fused parts or gaps): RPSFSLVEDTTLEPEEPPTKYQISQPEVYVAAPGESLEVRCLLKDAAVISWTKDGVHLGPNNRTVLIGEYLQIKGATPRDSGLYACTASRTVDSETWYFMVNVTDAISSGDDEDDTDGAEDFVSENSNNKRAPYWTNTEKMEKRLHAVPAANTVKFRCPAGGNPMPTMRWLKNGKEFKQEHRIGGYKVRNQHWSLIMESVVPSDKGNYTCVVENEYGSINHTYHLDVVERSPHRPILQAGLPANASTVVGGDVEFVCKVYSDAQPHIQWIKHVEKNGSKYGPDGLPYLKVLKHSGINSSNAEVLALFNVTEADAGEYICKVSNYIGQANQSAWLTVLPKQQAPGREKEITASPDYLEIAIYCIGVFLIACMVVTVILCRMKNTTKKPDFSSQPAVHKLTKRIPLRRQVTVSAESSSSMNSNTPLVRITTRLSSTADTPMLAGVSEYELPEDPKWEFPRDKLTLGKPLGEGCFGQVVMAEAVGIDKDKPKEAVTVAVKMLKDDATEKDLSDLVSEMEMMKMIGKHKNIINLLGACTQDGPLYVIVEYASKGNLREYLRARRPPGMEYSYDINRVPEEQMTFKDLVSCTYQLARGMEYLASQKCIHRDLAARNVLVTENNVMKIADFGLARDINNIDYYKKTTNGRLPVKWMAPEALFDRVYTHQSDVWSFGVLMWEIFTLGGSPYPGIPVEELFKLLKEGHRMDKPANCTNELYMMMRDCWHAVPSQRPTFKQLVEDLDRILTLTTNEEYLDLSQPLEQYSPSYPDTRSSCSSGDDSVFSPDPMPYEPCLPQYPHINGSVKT
T1 sequence (P21802 22-377): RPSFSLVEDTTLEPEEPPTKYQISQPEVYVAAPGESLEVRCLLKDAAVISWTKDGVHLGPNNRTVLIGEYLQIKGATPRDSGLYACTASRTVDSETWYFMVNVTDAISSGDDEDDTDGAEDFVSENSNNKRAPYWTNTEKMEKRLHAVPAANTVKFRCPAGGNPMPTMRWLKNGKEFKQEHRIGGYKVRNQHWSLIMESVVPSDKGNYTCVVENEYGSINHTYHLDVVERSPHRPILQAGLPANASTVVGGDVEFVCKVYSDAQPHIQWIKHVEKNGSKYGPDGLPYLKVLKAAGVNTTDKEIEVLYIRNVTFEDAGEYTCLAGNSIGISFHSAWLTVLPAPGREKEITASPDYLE
T2 sequence (P21802 other isoform, or with tags, fused parts or gaps): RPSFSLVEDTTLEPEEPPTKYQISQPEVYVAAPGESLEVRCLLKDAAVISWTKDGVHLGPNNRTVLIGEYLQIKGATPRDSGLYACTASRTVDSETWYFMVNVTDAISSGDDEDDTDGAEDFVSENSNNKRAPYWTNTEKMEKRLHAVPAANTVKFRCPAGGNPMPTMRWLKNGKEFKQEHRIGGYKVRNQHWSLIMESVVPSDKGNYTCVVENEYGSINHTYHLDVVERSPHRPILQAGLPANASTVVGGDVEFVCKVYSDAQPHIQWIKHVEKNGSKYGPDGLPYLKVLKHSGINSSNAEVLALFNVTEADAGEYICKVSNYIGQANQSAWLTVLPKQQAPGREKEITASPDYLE

B1: 3H6 scFv-Fc (Fc fusion)
chain: QVQLQQSGAELVKPGASVKMSCKASGYTFSFYNIHWVRQTPGQGLEWIGLIYPDNGDTSYNQKFKAKATLTADKSSSTAYMQLSSLTSEDSAVYYCARGGFDYWGQGTTLTVSSGGGGSGGGGSGGGGSDIQMTQSPASLSASVGETVTITCRASENIYSYLAWYQQKQGKSPQLLVYNAKTLAEGVPSRFSGSGSGTQFSLKINSLQPEDFGSYYCQHHYGTPYTFGGGTKLEMKESKYGPPCPPCPAPEAAGGPSVFLFPPKPKDTLMISRTPEVTCVVVDVSQEDPEVQFNWYVDGVEVHNAKTKPREEQFNSTYRVVSVLTVLHQDWLNGKEYKCKVSNKGLPSSIEKTISKAKGQPREPQVYTLPPSQEEMTKNQVSLTCLVKGFYPSDIAVEWESNGQPENNYKTTPPVLDSDGSFFLYSKLTVDKSRWQEGNVFSCSVMHEALHNHYTQKSLSLSLG
notes: scFv-Fc dimer
As for B1, the “OD (450 nm) value” in the assay with FGFR2c (acro) [1] came out at 0.093; with FGFR4 (acro) [6], 0.157; in assay [7] it was 3.35. The molecule further displayed a Kd in assay [2] of 8.41 nM. Also, the koff in assay [2] was found to be 0.00166 s⁻¹. For the same molecule, in assay [2], the association rate constant (kon) turned out to be 198000 M⁻¹ s⁻¹. For the same molecule, the binding result in the assay with FGFR4 (acro) [3] and in the assay with FGFR2c (acro) [4] was “no binding (tested: 10 µg/mL)” each time. Further, the EC50 worked out at 0.226 µg/mL with FGFR2b on KATO III cells and 0.0128 µg/mL in assay [5].

B2: 3A3 scFv-Fc (Fc fusion)
chain: QVQLQQSGAELVKPGASVKMSCKASGYTFTTYNIHWVRQTPGQGLEWIGLIYPDNGDTSYNQKFKAKATLTADKSSSTAYMHLSSLTSEDSAVYYCARGGFDYWGQGTTLTVSSGGGGSGGGGSGGGGSDIVMTQSHKFMSTSVGDRVSITCKASQDVNTDVSWYQQKPGQSPKLLIYSASYRYTGVPTRFTGSGSGTDFTFTISGVQAEDLADYYCQQHYNTPYTFGGGTRLEIKESKYGPPCPPCPAPEAAGGPSVFLFPPKPKDTLMISRTPEVTCVVVDVSQEDPEVQFNWYVDGVEVHNAKTKPREEQFNSTYRVVSVLTVLHQDWLNGKEYKCKVSNKGLPSSIEKTISKAKGQPREPQVYTLPPSQEEMTKNQVSLTCLVKGFYPSDIAVEWESNGQPENNYKTTPPVLDSDGSFFLYSKLTVDKSRWQEGNVFSCSVMHEALHNHYTQKSLSLSLG
notes: scFv-Fc dimer
Turning to B2, the entries for the “OD (450 nm) value” (with FGFR2c (acro) [1]; in the assay with FGFR4 (acro) [6]; in assay [7]) were 0.137, 0.136 and 3.2, respectively. Also, the Kd in assay [2] is 3.71 nM. In assay [2], this molecule returned a koff of 0.00133 s⁻¹. In assay [2], this molecule displayed a kon of 359000 M⁻¹ s⁻¹. The binding result with FGFR4 (acro) [3] and with FGFR2c (acro) [4] was “no binding (tested: 10 µg/mL)” throughout. In addition, the EC50 turned out to be 0.236 µg/mL in the assay with FGFR2b on KATO III cells and 0.0216 µg/mL in assay [5].

B3: 3F10 scFv-Fc (Fc fusion)
chain: EVQLQQSGAELVKPGASVKMSCKASGYTFSFYNIHWVRQTPGQGLEWIGLIYPDNGDTSYNQKFKAKATLTADKSSSTAYMQLSSLTSEDSAVYYCARGGFDYWGQGTTLTVSSGGGGSGGGGSGGGGSDVLMTQSPASLSASVGETVTITCGASENIYGALNWYQRKQGKSPQLLIYGATNLADGMSSRFSGSGSGRQYSLKISSLHPDDVATYYCQNVLSTPYTFGGGTKLEIKESKYGPPCPPCPAPEAAGGPSVFLFPPKPKDTLMISRTPEVTCVVVDVSQEDPEVQFNWYVDGVEVHNAKTKPREEQFNSTYRVVSVLTVLHQDWLNGKEYKCKVSNKGLPSSIEKTISKAKGQPREPQVYTLPPSQEEMTKNQVSLTCLVKGFYPSDIAVEWESNGQPENNYKTTPPVLDSDGSFFLYSKLTVDKSRWQEGNVFSCSVMHEALHNHYTQKSLSLSLG
notes: scFv-Fc dimer
B3: the figures for the “OD (450 nm) value” (in the assay with FGFR2c (acro) [1]; with FGFR4 (acro) [6]; in assay [7]) were 0.106, 0.123 and 3.22, respectively. The same molecule had a Kd in assay [2] of 7.62 nM. Moreover, the koff in assay [2] worked out at 0.00231 s⁻¹. The same molecule returned an association rate constant (kon) in assay [2] of 303000 M⁻¹ s⁻¹. Besides, the binding result with FGFR4 (acro) [3] and with FGFR2c (acro) [4] was “no binding (tested: 10 µg/mL)” throughout. Besides, the values for the EC50 (in the assay with FGFR2b on KATO III cells; in assay [5]) were 0.159 µg/mL and 0.00818 µg/mL, respectively.

B4: 3E7 scFv-Fc (Fc fusion)
chain: QVQLQQSGAELVKPGASVKMSCKASGYTFTIYNIHWVRQTPGQGLEWIGLIYPDNGDTSYNQKFKAKATLTADKSSSTAYMQLSSLTSEDSAVYYCARGGFDYWGQGTTLTVSSGGGGSGGGGSGGGGSNIVMTQSQKFMSTSVGDRVSVTCKASQNVGTNVAWYQQKPGQSPKALIYSASYRYSGVPDRFTGSGSGTDFTLTISGVQAEDLADYYCQQHYNTPYTFGGGTKLEIKESKYGPPCPPCPAPEAAGGPSVFLFPPKPKDTLMISRTPEVTCVVVDVSQEDPEVQFNWYVDGVEVHNAKTKPREEQFNSTYRVVSVLTVLHQDWLNGKEYKCKVSNKGLPSSIEKTISKAKGQPREPQVYTLPPSQEEMTKNQVSLTCLVKGFYPSDIAVEWESNGQPENNYKTTPPVLDSDGSFFLYSKLTVDKSRWQEGNVFSCSVMHEALHNHYTQKSLSLSLG
notes: scFv-Fc dimer
As to B4, the “OD (450 nm) value” with FGFR2c (acro) [1] is 0.114; with FGFR4 (acro) [6] it was 0.125; in assay [7], 3.15. Moreover, the Kd in assay [2] is 4.35 nM. In assay [2], this molecule showed a koff of 0.00111 s⁻¹. Further, in assay [2], the kon was 256000 M⁻¹ s⁻¹. In addition, the binding result with FGFR4 (acro) [3] and with FGFR2c (acro) [4] was “no binding (tested: 10 µg/mL)” in each case. Also, the EC50 stood at 0.298 µg/mL with FGFR2b on KATO III cells and 0.0154 µg/mL in assay [5].

B5: 2B1 scFv-Fc (Fc fusion)
chain: EVQLQQSGAELVKPGASVKMSCKASGYTFASYNLHWVKQTPGQGLEWIGLIYPENGDTSYNQKFKGKATLTADKSSSTAYIQLSSLTSEDSAVYFCARGGFDYWGQGTSLTVSSGGGGSGGGGSGGGGSDIQMIQSPASLSVSVGETVTITCRASENIYSNLAWYQQKQGKSPQLLVYNAKTLADGVPSRFSGSGSGTQYSLKINSLQPEDFGSYYCQHFWSTPYTFGGGTKLEIKESKYGPPCPPCPAPEAAGGPSVFLFPPKPKDTLMISRTPEVTCVVVDVSQEDPEVQFNWYVDGVEVHNAKTKPREEQFNSTYRVVSVLTVLHQDWLNGKEYKCKVSNKGLPSSIEKTISKAKGQPREPQVYTLPPSQEEMTKNQVSLTCLVKGFYPSDIAVEWESNGQPENNYKTTPPVLDSDGSFFLYSKLTVDKSRWQEGNVFSCSVMHEALHNHYTQKSLSLSLG
notes: scFv-Fc dimer
On to B5, for which the “OD (450 nm) value” in the assay with FGFR2c (acro) [1] is 0.098; with FGFR4 (acro) [6] it was 0.103; in assay [7] it was 3. This molecule also came in with a Kd in assay [2] of 6.67 nM. In assay [2], this molecule yielded a koff of 0.00179 s⁻¹. In assay [2], this molecule showed a kon of 268000 M⁻¹ s⁻¹. The binding result with FGFR4 (acro) [3] and with FGFR2c (acro) [4] was “no binding (tested: 10 µg/mL)” throughout. For the same molecule, the EC50 in the assay with FGFR2b on KATO III cells stood at 0.195 µg/mL; in assay [5] it was 0.0276 µg/mL.

B6: 2B2 scFv-Fc (Fc fusion)
chain: QLQLQQSGAELVKPGASVKMSCKASGYTFASYNLHWVKQTPGQGLEWIGLIYPENGDTSYNQKFKDKATLTADKSSTTAYIQLSSLASEDSAVYFCARGGFDYWGQGTTLTVSSGGGGSGGGGSGGGGSDIVMTQSQKFMSTSVGDRVSVTCKASQNVGTNVAWYQQKPGQSPKALIYSASYRYSGVPDRFTGSGSGTDYTLTISSVQAEDLALYYCQQHYSTPYTFGGGTKLELKESKYGPPCPPCPAPEAAGGPSVFLFPPKPKDTLMISRTPEVTCVVVDVSQEDPEVQFNWYVDGVEVHNAKTKPREEQFNSTYRVVSVLTVLHQDWLNGKEYKCKVSNKGLPSSIEKTISKAKGQPREPQVYTLPPSQEEMTKNQVSLTCLVKGFYPSDIAVEWESNGQPENNYKTTPPVLDSDGSFFLYSKLTVDKSRWQEGNVFSCSVMHEALHNHYTQKSLSLSLG
notes: scFv-Fc dimer
B6: the figures for the “OD (450 nm) value” (with FGFR2c (acro) [1]; with FGFR4 (acro) [6]; in assay [7]) were 0.113, 0.093 and 3.19, respectively. Further, in assay [2], binding was put at a Kd of 6.18 nM. The koff in assay [2] was found to be 0.00286 s⁻¹. The molecule further gave a kon in assay [2] of 462000 M⁻¹ s⁻¹. In addition, the binding result with FGFR4 (acro) [3] and with FGFR2c (acro) [4] was “no binding (tested: 10 µg/mL)” throughout. Besides, the EC50 with FGFR2b on KATO III cells came to 0.233 µg/mL; in assay [5] it was 0.0216 µg/mL.

B7: 3A12 scFv-Fc (Fc fusion)
chain: EVQLQQSGAELVKPGASVKMSCKASGYTFSFYNVHWVRQTPGQGLEWIGLIYPDNGDTSYNQKFKAKATLTADKSSSAAYMQLSSLTSEDSAVYYCARGGFDYWGQGTSLTVSSGGGGSGGGGSGGGGSDIVMTQSHKFMSTSVGDRVNITCKASQDVSTAVAWYQQKPGQSPKLLIYSASYRYSGVPDRFTGSGSGTDFTFTISSVQAEDLAVYYCQQHYSTPYTFGGGTKLEMKESKYGPPCPPCPAPEAAGGPSVFLFPPKPKDTLMISRTPEVTCVVVDVSQEDPEVQFNWYVDGVEVHNAKTKPREEQFNSTYRVVSVLTVLHQDWLNGKEYKCKVSNKGLPSSIEKTISKAKGQPREPQVYTLPPSQEEMTKNQVSLTCLVKGFYPSDIAVEWESNGQPENNYKTTPPVLDSDGSFFLYSKLTVDKSRWQEGNVFSCSVMHEALHNHYTQKSLSLSLG
notes: scFv-Fc dimer
For B7, the “OD (450 nm) value” with FGFR2c (acro) [1] was determined as 0.098; with FGFR4 (acro) [6] it was 0.106; in assay [7] it was 3.27. In addition, in assay [2], the Kd was found to be 2.82 nM. Further, the koff in assay [2] was 0.000662 s⁻¹. In addition, the kon in assay [2] was determined as 235000 M⁻¹ s⁻¹. In addition, the binding result with FGFR4 (acro) [3] and with FGFR2c (acro) [4] was “no binding (tested: 10 µg/mL)” throughout. Also, the EC50 with FGFR2b on KATO III cells came out at 0.292 µg/mL; in assay [5], 0.0128 µg/mL.
